Measured values taken from paper PMC8902820.
Each block holds one molecule with its values, some of them ahead of it.

Key:
FcγRIIB (SPR assay) = FcγRIIB (SPR assay) (UniProt P31994); assay: SPR; FcγRIIA, FcγRIIB, FcγRIIIA; KD determined by the analyte concentration at which half of the ligands are occupied at equilibrium
FcγRIIA H131 (SPR assay) = FcγRIIA H131 (SPR assay) (UniProt P12318); assay: as above
FcγRIIA R131 (SPR assay) = assay: as above
FcγRIIIA F158 = FcγRIIIA F158 (UniProt P08637); assay: as above
FcγRIIIA V158 = assay: as above
FcγRI (SPR assay) = FcγRI (SPR assay) (UniProt P12314); assay: SPR; FcγRI; KD calculated from the ratio of the kinetic constants (KD = koff/kon)
Sequence of UniProt P12314 (P12314 16-374): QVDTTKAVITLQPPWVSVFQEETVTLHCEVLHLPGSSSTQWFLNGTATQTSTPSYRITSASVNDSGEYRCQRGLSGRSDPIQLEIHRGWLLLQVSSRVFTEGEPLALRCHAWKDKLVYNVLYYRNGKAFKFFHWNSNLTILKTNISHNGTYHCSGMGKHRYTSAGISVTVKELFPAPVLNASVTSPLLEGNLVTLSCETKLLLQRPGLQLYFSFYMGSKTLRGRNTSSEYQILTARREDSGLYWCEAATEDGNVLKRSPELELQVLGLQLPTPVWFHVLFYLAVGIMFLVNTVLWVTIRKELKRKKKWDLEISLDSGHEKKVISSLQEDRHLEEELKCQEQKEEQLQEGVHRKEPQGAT

Sequence of UniProt P31994 (P31994 43-310): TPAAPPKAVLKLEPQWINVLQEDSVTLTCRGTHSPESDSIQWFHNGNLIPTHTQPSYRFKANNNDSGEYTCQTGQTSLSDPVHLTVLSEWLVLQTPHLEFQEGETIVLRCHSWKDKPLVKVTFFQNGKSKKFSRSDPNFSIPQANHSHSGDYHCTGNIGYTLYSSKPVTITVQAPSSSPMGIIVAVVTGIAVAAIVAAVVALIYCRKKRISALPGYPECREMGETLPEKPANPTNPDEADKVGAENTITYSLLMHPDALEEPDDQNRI
Sequence of UniProt P08637 (P08637 17-254): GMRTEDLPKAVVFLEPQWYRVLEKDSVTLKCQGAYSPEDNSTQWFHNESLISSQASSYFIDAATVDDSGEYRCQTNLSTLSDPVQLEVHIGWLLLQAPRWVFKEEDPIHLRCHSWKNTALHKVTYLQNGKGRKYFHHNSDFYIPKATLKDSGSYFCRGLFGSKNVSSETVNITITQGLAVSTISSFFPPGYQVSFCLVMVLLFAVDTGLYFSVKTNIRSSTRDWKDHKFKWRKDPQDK
Sequence of UniProt P12318 (P12318 34-317): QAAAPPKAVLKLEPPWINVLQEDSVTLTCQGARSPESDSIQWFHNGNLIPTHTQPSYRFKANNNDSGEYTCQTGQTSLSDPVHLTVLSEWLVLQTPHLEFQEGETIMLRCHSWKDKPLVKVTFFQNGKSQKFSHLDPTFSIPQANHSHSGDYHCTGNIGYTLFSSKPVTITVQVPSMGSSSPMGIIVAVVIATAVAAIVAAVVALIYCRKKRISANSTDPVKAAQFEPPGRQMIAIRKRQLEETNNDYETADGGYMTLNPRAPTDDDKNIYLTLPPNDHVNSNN

Kd (FcγRIIB (SPR assay)): 2840 nM
Kd (FcγRIIA H131 (SPR assay)): 965 nM
Molecule: Ociperlimab (BGB-A1217), humanized IgG1 anti-human TIGIT antibody with wild-type IgG1 Fc

Kd (FcγRIIA R131 (SPR assay)): 1020 nM
Kd (FcγRIIIA F158): 2180 nM
Kd (FcγRIIIA V158): 555 nM
Kd (FcγRI (SPR assay)): 0.0406 nM
B1: Ociperlimab (BGB-A1217), humanized IgG1 anti-human TIGIT antibody with wild-type IgG1 Fc (antibody, V domains shown)
VH: EVQLVESGGGLVQPGGSLRLSCAASGFTFSDYYMYWVRQAPGKGLEWVAYITKGGGSTYYPDSVKGRFTISRDNAKNTLYLQMNSLRAEDTAVYYCARQTNYDFTMDYWGQGTLVTVSS
VL: EIVMTQSPATLSVSPGERATLSCKASQDVGTSVAWYQQKPGQAPRLLIYWASARHTGIPARFSGSGSGTEFTLTISSLQSEDFAVYYCQQYSSYPLTFGGGTKVEIK
